# Test results reported in US11433139B2, “Peptide vaccines against interleukin-31” (Zoetis Services LLC, priority 2018, dated 2022).
# Entries after “also recorded” stand apart in the source; their conditions may differ. Where no end group is shown, it is not given here. The star is where a group is joined. Biotin = O=C1N[C@H]2[C@H](CS[C@H]2CCCCC(=O)*)N1
# B1: ZIL1: fully canine anti IL-31 antibody, VH SEQ ID NO: 75, VL SEQ ID NO: 77 (antibody, listed as Canis familiaris, V domains shown)
# VH: EVQLVESGGDLVKPGGSLRLSCVASGFTFSSYGMSWVRQAPGKGLQWVAHINSGGSSTYYADAVKGRFTISRDNAKNTLYLQMNSLRAEDTAVYYCVEVYTTLAAFWTDNFDYWGQGTLVTVSS
# VL: QSVLTQPTSVSGSLGQRVTISCSGSTNNIGILAATWYQQLPGKAPKVLVYSDGNRPSGVPDRFSGSKSGNSATLTITGLQAEDEADYYCQSFDTTLDAYVFGSGTQLTVL
# B2: 11E12: mouse-derived anti IL-31 antibody previously described in U.S. Pat. No. 8,790,651; for comparison (antibody, V domains shown)
# VH: QVQLQQSGAELVKPGASVKLSCKASGYTFKYYDINWVRQRPEQGLEWIGWIFPGDGGTKYNETFKGKATLTTDKSSSTAYMQLSRLTSEDSAVYFCARGGTSVIRDAMDYWGQGTSVTVSS
# VL: DIVLTQSPASLAVSLGQRATISCRASESVDNYGISFMHWYQQKPGQPPKLLIYRASNLESGIPARFSGSGSRTDFTLTINPVETDDVATYYCQQSNKDPLTFGAGTKLELK
# Assays:
# [1] = test system: mouse anti equine IL-31 serum; test: Bio-layer interferometry binding of mouse serum to immobilized equine IL-31 mimotopes
# Excerpt: Mice were immunized with full length equine IL-31 (SEQ ID NO: 165; Equine_IL-31), the corresponding nucleotide sequence for which is (SEQ ID NO: 166; […]) conjugated to CRM-197 like the method described in section 1.6 of this application. Biotin conjugated peptides representing three epitope regions described herein were designed for use with a bio-layer interferometry binding assay (Octet, ForteBio). Description of these peptides are described in FIG. 21A. Each peptide contains an N terminal biotin with a three-amino acid spacer sequence (GSG) annotated with bold underlined text in the figure. The 15H05 mimotope includes two terminal cysteine residues (also highlighted in bold and underlined) to facilitate cyclization by a disulphide bond. […] Control mouse serum was from a mouse vaccinated with an unrelated protein. The response, described here as the amplitude of the signal following 120 seconds of antiserum association, is represented on the y axis of the figure. […] In addition, the ability of these IL-31 mimotopes to be recognized by those immune responses can be assessed through binding. […] Like presentation of mimotopes described herein which elicit immune responses to full length protein, this experiment describes a reciprocal validation of these epitopes where the immune response is validated from the protein against the mimotope.
# wildtype feline IL-31 [2] = test: Indirect ELISA, binding to wildtype feline IL-31
# Chain of wildtype feline IL-31 (as listed by the source): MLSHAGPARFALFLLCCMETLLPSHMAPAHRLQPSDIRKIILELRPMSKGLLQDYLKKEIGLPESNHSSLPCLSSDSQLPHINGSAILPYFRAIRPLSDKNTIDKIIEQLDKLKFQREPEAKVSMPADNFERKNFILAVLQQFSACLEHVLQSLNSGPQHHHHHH
# Method: (§1) Mice and dogs were immunized with recombinant canine IL-31 (SEQ ID No. 155) for the purpose of identifying antibodies. Serum antibody titers from immunized animals were determined using an enzyme linked immunosorbent assay (ELISA). Canine or feline IL-31 (50 ng/well) was immobilized to polystyrene microplates and used as a capture antigen. Serum from immunized animals was diluted in phosphate buffered saline with 0.05% tween-20 (PBST). The presence of anti-IL-31 antibodies was detected with an appropriate secondary HRP labeled antibody. Following addition of a chromogenic substrate (SureBlue Reserve TMB 1-Component Microwell Peroxidase Substrate, KPL, Inc., Gaithersburg, Md.) and a ten minute incubation at room temperature (RT) the reaction was stopped with the addition of […] of 0.1 N HCl. The absorbance of each well was determined at an optical density (OD) of 450 nm. Antibodies were selected for their ability to bind canine and feline IL-31 using an ELISA. In some cases, further characterization was performed at the time of selection using an ELISA with a mutant form of the feline IL-31 protein as a capture antigen. Cells producing antibodies with desired binding and inhibitory properties were chosen for sequence analysis of RNA transcripts representing the variable heavy (VH) and variable light (VL) IgG chains.
# (§2) For the indirect ELISA method, antibody binding to wildtype and feline IL-31 15H05 mutant proteins was assessed. […] In comparison, the 11E12 antibody bound to the wild-type feline IL-31 and its binding was not impacted by the mutations in the 15H05 epitope region as evidenced by the data in FIG. 4. To confirm binding, biacore analysis was performed using canine, feline, equine, human, feline 15H05 mutant, and feline 11E12 mutant IL-31 proteins as surfaces and a single test concentration of antibody. Similar to ELISA observations, all antibodies tested bound to wildtype feline IL-31. In agreement with the data described above in this section, mouse antibodies 11 E12 and 15H05 both bound to canine and feline IL-31 surfaces. […] From this group of nine fully canine antibodies, only ZIL1 and ZIL9 cross-reacted with equine IL-31. Of note, antibody 15H05 was the only one of all assayed herein that bound to canine, feline, and equine IL-31 indicating some level of epitope conservation across the three species. In contrast, none of the antibodies described herein bound to human IL-31. Additional biacore surfaces were used to verify ELISA observations showing differential binding of antibodies to wildtype feline IL-31 and two proteins with mutations in the 15H05 (15H05 mutant) or 11 E12 (11E12 mutant) epitopes. […] Differing results can be attributed to differences in the two assay methodologies.
# (§3) To determine the impact of mAbs 11E12 and 15H05 ability to bind these mutant forms of feline IL-31, an indirect ELISA was run using the mutants directly coated on to an immunoassay plate. […] The minor attenuation of mAb 15H05s binding to the 11E12 mutant is likely due to translational effects of the mutations from movement of the two front helices effecting the 15H05 binding site. The mutations designed to affect mAb 15H05s binding (mutant 15H05) show a complete loss of mAb 1505s ability to bind this IL-31 mutant by ELISA. Unlike the 11E12 mutant, the changes in the random coil recognized by mAb 15H05 (mutant 15H05) had no impact on mAb 11E12 binding further supporting the distinction between the two epitopes (FIG. 6C).
# [3] = test system: feline IL-31 15H05 mutant; test: Indirect ELISA, binding to feline IL-31 15H05 mutant; details: compared with wildtype
# Chain of feline IL-31 15H05 mutant (as listed by the source, change not shown): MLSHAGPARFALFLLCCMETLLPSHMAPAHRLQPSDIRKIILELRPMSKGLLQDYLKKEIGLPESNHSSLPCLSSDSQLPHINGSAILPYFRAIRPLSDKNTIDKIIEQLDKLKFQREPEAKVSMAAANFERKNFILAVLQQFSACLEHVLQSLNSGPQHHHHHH
# Method: as §1, §2, §3
# equine IL-31 = test: Biacore binding, single test concentration of antibody, equine IL-31 surface
# Chain of equine IL-31 (as listed by the source): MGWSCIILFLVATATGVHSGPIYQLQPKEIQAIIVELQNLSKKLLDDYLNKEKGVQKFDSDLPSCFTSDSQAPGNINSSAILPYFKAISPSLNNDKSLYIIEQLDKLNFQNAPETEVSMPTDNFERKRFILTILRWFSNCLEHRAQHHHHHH
# Method: (§4) For the indirect ELISA, binding (ELISA OD) to wildtype feline IL-31 and a feline IL-31 15H05 mutant which had mutations in the monoclonal antibody 15H05 epitope region was assessed. To confirm binding, biacore analysis was performed using canine, feline, equine, human, the feline 15H05 mutant, and feline 11E12 mutant IL-31 proteins as surfaces and a single test concentration of antibody. The feline IL-31 11E12 mutant had mutations in the monoclonal antibody 11E12 epitope region.
# as §2
# [4] = test system: feline 15H05 mutant IL-31; test: Biacore binding, single test concentration of antibody, feline 15H05 mutant IL-31 surface
# Method: as §4, §2
# [5] = test system: feline 11E12 mutant IL-31; test: Biacore binding, single test concentration of antibody, feline 11E12 mutant IL-31 surface
# Chain of feline 11E12 mutant IL-31 (as listed by the source, change not shown): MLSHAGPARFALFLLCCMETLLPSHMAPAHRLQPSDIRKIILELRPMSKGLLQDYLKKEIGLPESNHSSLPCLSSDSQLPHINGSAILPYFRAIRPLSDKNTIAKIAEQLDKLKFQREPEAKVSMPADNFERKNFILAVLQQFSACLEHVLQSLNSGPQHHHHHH
# Method: as §4, §2
# feline IL-31 [6] = test: Affinity of anti-IL-31 antibodies by surface plasmon resonance (Biacore), feline IL-31 surface; type: binding; details: IL-31 conjugated to the surface (FIG. 2)
# Outline: (§5)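 IL-31 amine-coupled (NHS/EDC) at 5 μg/mL directly onto the SPR chip, quenched with ethanolamine; candidate mAbs flowed over as analyte. KD from 1:1 model fits; values below 1×10^−11 M are under the instrument's lower quantitation limit.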
# canine IL-31 [7] = test: Affinity of anti-IL-31 antibodies by surface plasmon resonance (Biacore), canine IL-31 surface; type: binding; details: IL-31 conjugated to the surface (FIG. 2)
# Chain of canine IL-31 (as listed by the source): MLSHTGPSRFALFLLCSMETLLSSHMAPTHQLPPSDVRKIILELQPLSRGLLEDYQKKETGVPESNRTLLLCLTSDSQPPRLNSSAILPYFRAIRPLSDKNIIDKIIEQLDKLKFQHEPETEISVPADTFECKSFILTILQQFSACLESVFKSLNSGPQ
# Outline: as §5
# feline IL-31 [8] = test: Inhibition of feline IL-31 induced pSTAT3 signaling in feline FCWF4 macrophage-like cells; type: cell-based; details: 0.2 μg/mL feline IL-31, pSTAT3, FCWF4 cells (FIG. 3)
# Method: (§6) To identify candidates with inhibitory activity, antibodies were assessed for their ability to affect IL-31-mediated STAT3 phosphorylation in either a canine or feline cell-based assay. STAT3 phosphorylation was determined in canine DH-82 (ATCC® CRL-10389™) or feline FCWF4 macrophage-like cells (ATCC CRL-2787). DH82 and FCWF4 cells were primed with canine interferon gamma (R&D Systems, Minneapolis, Minn.) at 10 ng/mL for 24 hours or feline interferon gamma (R&D Systems, Minneapolis, Minn.) at 125 ng/mL for 96 hours, respectively, to increase receptor expression. Both cell types were serum starved for 2 hours prior to IL-31 and mAb treatment. Using two independent methods, all candidate mAbs were evaluated for their ability to inhibit either 1 μg/mL canine or 0.2 μg/mL feline IL-31 induced STAT3 phosphorylation. […] To ensure complex formation, a one hour co-incubation of mAb and IL-31 cytokine prior to cell stimulation was completed. IL-31 cell stimulation was carried out for five minutes. STAT3 phosphorylation was measured using AlphaLISA SureFire ULTRA™ technology (Perkin Elmer, Waltham, Mass.). In the case where antibody concentration and purity are unknown, hybridoma supernatants were qualitatively measured for their ability to inhibit STAT3 phosphorylation following a 1 hour co-incubation with […] IL-31. The potency of individual monoclonal antibodies defined by their ability to inhibit IL-31 mediated STAT3 phosphorylation in these assays was considered the key selection criteria for further advancement of select antibodies. The term potency refers to the IC50 value calculated from these assays and is the concentration of the antibody where signaling induced by IL-31 is reduced to one half its maximal value.
# feline IL-31 [9] = test: Inhibition of feline IL-31 induced pSTAT3 signaling in canine DH-82 cells; type: cell-based; details: feline IL-31, pSTAT3, canine DH82 cells (FIG. 3)
# Method: as §6
# Target sequence in this assay (as listed by the source): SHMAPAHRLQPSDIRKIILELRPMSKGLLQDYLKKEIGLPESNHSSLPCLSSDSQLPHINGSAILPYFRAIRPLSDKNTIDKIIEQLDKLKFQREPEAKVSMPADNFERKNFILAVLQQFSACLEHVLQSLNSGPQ
# [10] = test system: feline IL-31 11E12 mutant; test: Indirect ELISA, binding to feline IL-31 11E12 mutant; details: compared with wildtype
# Excerpt: as §3
# wildtype feline IL-31 [11] = test: Biacore binding, single test concentration of antibody, feline IL-31 surface
# Method: as §4
# For the indirect ELISA method, antibody binding to wildtype and feline IL-31 15H05 mutant proteins was assessed. […] In comparison, the 11E12 antibody bound to the wild-type feline IL-31 and its binding was not impacted by the mutations in the 15H05 epitope region as evidenced by the data in FIG. 4. To confirm binding, biacore analysis was performed using canine, feline, equine, human, feline 15H05 mutant, and feline 11E12 mutant IL-31 proteins as surfaces and a single test concentration of antibody. Similar to ELISA observations, all antibodies tested bound to wildtype feline IL-31. In agreement with the data described above in this section, mouse antibodies 11 E12 and 15H05 both bound to canine and feline IL-31 surfaces. […] From this group of nine fully canine antibodies, only ZIL1 and ZIL9 cross-reacted with equine IL-31. […]
# canine IL-31 [12] = test: Biacore binding, single test concentration of antibody, canine IL-31 surface
# Method: as §4, §2
# canine IL-31 [13] = test: Competition binding assessment using Biacore, canine IL-31 surface; details: sequential addition of 15H05 and 11E12, Biacore
# Method: (§7) To further characterize the IL-31 epitopes bound by mAbs 15H05 and 11 E12, blocking experiments were performed using biacore where the surface containing the IL-31 protein was generated followed by sequential addition of antibodies. FIGS. 7A and 7B show the relative binding of each antibody to IL-31 following capture of 11E12 or 15H05. The columns labeled HBS-EP (assay buffer) indicate the maximum signal obtained from each antibody binding to the IL-31 surface alone without competition. […] The sensograms related to FIG. 7A show the disassociation kinetics of both antibodies are very slow on this newly formed biacore surface therefore no additional occupation of binding sites can occur with addition of the same antibody (data not shown).
# feline IL-31 [14] = test: Competition binding assessment using Biacore, feline IL-31 surface; details: sequential addition of 15H05 and 11E12, Biacore
# Method: as §7
# Binding of additional antibody in the presence of the same antibody is a result of the increased off rate due to the poorer quality of the surface used. Increased off rates can be seen and compared to the KD values from newly formed feline IL-31 surfaces in FIG. 2.
Molecule,"binding of mouse anti equine IL-31 serum to mimotope ([1]; biotin peptide on streptavidin pins, 120 seconds association)",binding of control mouse serum to mimotope ([1]; serum of a mouse vaccinated with an unrelated protein),binding to wildtype feline IL-31 (ELISA) (wildtype feline IL-31 [2]),binding to feline IL-31 15H05 mutant (ELISA) [3],binding to equine IL-31 (Biacore) (equine IL-31),binding to feline 15H05 mutant IL-31 (Biacore) [4],binding to feline 11E12 mutant IL-31 (Biacore) [5],affinity (KD) to feline IL-31 (feline IL-31 [6]),affinity (KD) to canine IL-31 (canine IL-31 [7]),potency (IC50) against feline IL-31 in feline FCWF4 cells (feline IL-31 [8]),potency (IC50) against feline IL-31 in canine DH82 cells (feline IL-31 [9]),binding to feline IL-31 11E12 mutant (ELISA) [10],binding to wildtype feline IL-31 (Biacore) (wildtype feline IL-31 [11]),binding to canine IL-31 (Biacore) (canine IL-31 [12]),competition binding on canine IL-31 (canine IL-31 [13]),competition binding on feline IL-31 (feline IL-31 [14])
A helix: biotin GSG equine IL-31 mimotope N-GPIYQLQPKEIQAIIVELQNLSKK-C (Biotin-GSGGPIYQLQPKEIQAIIVELQNLSKK),recognized as relevant immunogens,some dilution dependent signal,–,–,–,–,–,–,–,–,–,–,–,–,–,–
B1,–,–,capable of binding; also recorded: retained binding,binding was impacted; also recorded: decreased,cross-reacted,decreased,partially effected,–,–,–,–,–,–,–,–,–
B2,–,–,bound; also recorded: capable of binding,not impacted; also recorded: no impact,–,bound,did not bind,high affinity,high affinity,comparable,comparable,highly attenuated,bound,bound,capable of binding to canine IL-31 in the presence of one another,no overlap in the epitope recognized
